The results in this text go back to the supplement of paper PMC11811203.

Sequences and labels used below:
B1: THAP1; numbered along this chain (parent)
chain: MVQSCSAYGCKNRYDKDKPVSFHKFPLTRPSLCKEWEAAVRRKNFKPTKYSSICSEHFTPDCFKRECNNKLLKENAVPTIFLCTEPHDKKEDLLEPQEQLPPPPLPPPVSQVDAAIGLLMPPLQTPVNLSVFCDHNYTVEDTMHQRKRIHQLEQQVEKLRKKLKTAQQRCRRQERQLEKLKEVVHFQKEKDDVSERGYVILPNDYFEIVEVPA

The series covers variants of B1. The series can be described thus: THAP1 transcriptional activity (GFP+/GFP- enrichment relative to wild-type constructs) (ratio to WT); higher = more THAP1 activity (PSMB5 reporter activation). The settings on record: with PSMB5 promoter-GFP reporter. A digest of the protocol: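 Variants were counted by Illumina sequencing of genomic DNA amplicons from BFP+ cells sorted into GFP-bright and GFP-dim bins five days after lentiviral transduction, in duplicate at MOI ~0.3. The library changed each of residues 2–213 of human THAP1 to all 20 amino acids and was introduced into THAP1-knockout HEK-293T cells with mClover3 knocked in at endogenous PSMB5. Activity equals the replicate-mean bright/dim read fold change over the mean of wild-type synonymous constructs.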
With MVQSCSAYGCKNRYDKDKPVSFHKFPLTRPSLCKEWEAAVRRKNFKPTKYSSICSEHFTPDCFKRECNNKLLKENAVPTIFLCTEPHDKKEDLLEPQEQLPPPPLPPPVSQVDAAIGLLMPPLQTPVNLSVFCDHNYTVEDTMHQRKRIHQLEQQVEKLRKKLKTAQQRCRRQERQLEKLKEVVHFQKEKDDVSERAYVILPNDYFEIVEVPA [G197A], the THAP1 transcriptional activity was 1.19. For MVQSLSAYGCKNRYDKDKPVSFHKFPLTRPSLCKEWEAAVRRKNFKPTKYSSICSEHFTPDCFKRECNNKLLKENAVPTIFLCTEPHDKKEDLLEPQEQLPPPPLPPPVSQVDAAIGLLMPPLQTPVNLSVFCDHNYTVEDTMHQRKRIHQLEQQVEKLRKKLKTAQQRCRRQERQLEKLKEVVHFQKEKDDVSERGYVILPNDYFEIVEVPA [C5L], the THAP1 transcriptional activity is 0.147. For the variant MVQSCSAYGCKNRYDKDRPVSFHKFPLTRPSLCKEWEAAVRRKNFKPTKYSSICSEHFTPDCFKRECNNKLLKENAVPTIFLCTEPHDKKEDLLEPQEQLPPPPLPPPVSQVDAAIGLLMPPLQTPVNLSVFCDHNYTVEDTMHQRKRIHQLEQQVEKLRKKLKTAQQRCRRQERQLEKLKEVVHFQKEKDDVSERGYVILPNDYFEIVEVPA [K18R], the THAP1 transcriptional activity was determined as 0.936. As for MVQSCSAYGCKNRYDKDKPVSFHKFPLTRPSLCKEWEAAVRRKNFKPTKYSSICSEHFTPDCFKPECNNKLLKENAVPTIFLCTEPHDKKEDLLEPQEQLPPPPLPPPVSQVDAAIGLLMPPLQTPVNLSVFCDHNYTVEDTMHQRKRIHQLEQQVEKLRKKLKTAQQRCRRQERQLEKLKEVVHFQKEKDDVSERGYVILPNDYFEIVEVPA [R65P], the THAP1 transcriptional activity turned out to be 0.671.

Turning to MVQSCSAYGCKNRYDKDKPVSFHKFPLTRPSLCKEWEAAVRRKNFKPTKYSSICSEHFTPDCFKRECNNKLLKENAVPTIFPCTEPHDKKEDLLEPQEQLPPPPLPPPVSQVDAAIGLLMPPLQTPVNLSVFCDHNYTVEDTMHQRKRIHQLEQQVEKLRKKLKTAQQRCRRQERQLEKLKEVVHFQKEKDDVSERGYVILPNDYFEIVEVPA [L82P], the THAP1 transcriptional activity came to 2.38. MVQSCSAYGCKNRYDKDKPVSFHKFPLTRPSLCKEWEAAVRRKNFKPTKYSSICSEHFTPDCFKRECNNKLLKENAVPTIFLCTEPHDKKEDLLEPQEQLPPPPLPPPVSQVDAAIGLLMPPLQTPVNLSVFCDHNYTVEDTMHQRKRIHQLEQQVEKLRKKLKTAQQRCRRQERQLEKLKKVVHFQKEKDDVSERGYVILPNDYFEIVEVPA [E182K]: the THAP1 transcriptional activity was determined as 1.56. For the variant MVQSCSAYGCKNRYDKDKPVSFHKFPLTRPSLCKEWEAAVRRKNFKPTKYSSICSEHFTPDCFKRECNNKLLKENAVPTIFLCTEPHDKKEDLLEPQEQLPPPPLPPPVSQVDAAIGLLMPILQTPVNLSVFCDHNYTVEDTMHQRKRIHQLEQQVEKLRKKLKTAQQRCRRQERQLEKLKEVVHFQKEKDDVSERGYVILPNDYFEIVEVPA [P122I], the THAP1 transcriptional activity turned out to be 0.39. MVQSCSAYGCKNRYDKDKPVSFHKFPLTRPSLCKEWEAAVRRKNFKPTKYSSICSEHFTPDCFKRECNNKLLKENAVPTIFLCTEPHDKKEDLLEPQEQLPPPPLPPPVSYVDAAIGLLMPPLQTPVNLSVFCDHNYTVEDTMHQRKRIHQLEQQVEKLRKKLKTAQQRCRRQERQLEKLKEVVHFQKEKDDVSERGYVILPNDYFEIVEVPA [Q111Y]: the THAP1 transcriptional activity amounted to 0.232. MVQSCSAYGCKNRYDKDKPVSFHKFPLTRPSLCKEWEAAVRRKNFKPTKYSSIISEHFTPDCFKRECNNKLLKENAVPTIFLCTEPHDKKEDLLEPQEQLPPPPLPPPVSQVDAAIGLLMPPLQTPVNLSVFCDHNYTVEDTMHQRKRIHQLEQQVEKLRKKLKTAQQRCRRQERQLEKLKEVVHFQKEKDDVSERGYVILPNDYFEIVEVPA [C54I]: the THAP1 transcriptional activity stood at 0.0624. Consider MVQYCSAYGCKNRYDKDKPVSFHKFPLTRPSLCKEWEAAVRRKNFKPTKYSSICSEHFTPDCFKRECNNKLLKENAVPTIFLCTEPHDKKEDLLEPQEQLPPPPLPPPVSQVDAAIGLLMPPLQTPVNLSVFCDHNYTVEDTMHQRKRIHQLEQQVEKLRKKLKTAQQRCRRQERQLEKLKEVVHFQKEKDDVSERGYVILPNDYFEIVEVPA [S4Y], for which the THAP1 transcriptional activity came out at 0.123. The figure for MVQSCSAYGCKNRYDKDKPVSFHKFPLTRPSLCKEWEAAVRRKNFKPTKYSSICSEHFTPDCFKRECNNKLLKENAVPTIFLCTEPHDKKEDLLEPQEQLPPPPLPPPVSQVDAAIGLLMPPLQTPVNLSVFCDHNYTVEDTMHWRKRIHQLEQQVEKLRKKLKTAQQRCRRQERQLEKLKEVVHFQKEKDDVSERGYVILPNDYFEIVEVPA [Q145W] is 0.755; for MVQSCSAYGCKNRYDKDKPVSFHKFPLTRTSLCKEWEAAVRRKNFKPTKYSSICSEHFTPDCFKRECNNKLLKENAVPTIFLCTEPHDKKEDLLEPQEQLPPPPLPPPVSQVDAAIGLLMPPLQTPVNLSVFCDHNYTVEDTMHQRKRIHQLEQQVEKLRKKLKTAQQRCRRQERQLEKLKEVVHFQKEKDDVSERGYVILPNDYFEIVEVPA [P30T] it is 0.349; for MVQSCSAYGCKNRYDKDKPVSFHKFPLTRPSLCKEWEAAVRRKNFKPTKYSSICSEHFTPDCFKRECNNKLLKENAVPTIFLCTEPHDKKEDLLEPEEQLPPPPLPPPVSQVDAAIGLLMPPLQTPVNLSVFCDHNYTVEDTMHQRKRIHQLEQQVEKLRKKLKTAQQRCRRQERQLEKLKEVVHFQKEKDDVSERGYVILPNDYFEIVEVPA [Q97E] it is 1.24. With MVQSCSAYGCKNRYDKDKPVSFHKFPLTRPSLCKEWEAAVRRKNFKPTKYSSICSEHFTPDCFKRECNNKLLKENAVPTIFLCTEPHDKKEDLLEPQEQLPPPPLPPPVSQVDAAIGLLMPPLQTPVNLSVFADHNYTVEDTMHQRKRIHQLEQQVEKLRKKLKTAQQRCRRQERQLEKLKEVVHFQKEKDDVSERGYVILPNDYFEIVEVPA [C133A], the THAP1 transcriptional activity stood at 0.667.
